Measurements: publication PMC7781312

Molecular target: prefusion-stabilized MERS-CoV S ectodomain trimer (MERS-CoV 2P S) (MERS-CoV) (UniProt K9N5Q8)
Assay: cryo-EM structure

Sequence of prefusion-stabilized MERS-CoV S ectodomain trimer (MERS-CoV 2P S) (K9N5Q8 18-1296): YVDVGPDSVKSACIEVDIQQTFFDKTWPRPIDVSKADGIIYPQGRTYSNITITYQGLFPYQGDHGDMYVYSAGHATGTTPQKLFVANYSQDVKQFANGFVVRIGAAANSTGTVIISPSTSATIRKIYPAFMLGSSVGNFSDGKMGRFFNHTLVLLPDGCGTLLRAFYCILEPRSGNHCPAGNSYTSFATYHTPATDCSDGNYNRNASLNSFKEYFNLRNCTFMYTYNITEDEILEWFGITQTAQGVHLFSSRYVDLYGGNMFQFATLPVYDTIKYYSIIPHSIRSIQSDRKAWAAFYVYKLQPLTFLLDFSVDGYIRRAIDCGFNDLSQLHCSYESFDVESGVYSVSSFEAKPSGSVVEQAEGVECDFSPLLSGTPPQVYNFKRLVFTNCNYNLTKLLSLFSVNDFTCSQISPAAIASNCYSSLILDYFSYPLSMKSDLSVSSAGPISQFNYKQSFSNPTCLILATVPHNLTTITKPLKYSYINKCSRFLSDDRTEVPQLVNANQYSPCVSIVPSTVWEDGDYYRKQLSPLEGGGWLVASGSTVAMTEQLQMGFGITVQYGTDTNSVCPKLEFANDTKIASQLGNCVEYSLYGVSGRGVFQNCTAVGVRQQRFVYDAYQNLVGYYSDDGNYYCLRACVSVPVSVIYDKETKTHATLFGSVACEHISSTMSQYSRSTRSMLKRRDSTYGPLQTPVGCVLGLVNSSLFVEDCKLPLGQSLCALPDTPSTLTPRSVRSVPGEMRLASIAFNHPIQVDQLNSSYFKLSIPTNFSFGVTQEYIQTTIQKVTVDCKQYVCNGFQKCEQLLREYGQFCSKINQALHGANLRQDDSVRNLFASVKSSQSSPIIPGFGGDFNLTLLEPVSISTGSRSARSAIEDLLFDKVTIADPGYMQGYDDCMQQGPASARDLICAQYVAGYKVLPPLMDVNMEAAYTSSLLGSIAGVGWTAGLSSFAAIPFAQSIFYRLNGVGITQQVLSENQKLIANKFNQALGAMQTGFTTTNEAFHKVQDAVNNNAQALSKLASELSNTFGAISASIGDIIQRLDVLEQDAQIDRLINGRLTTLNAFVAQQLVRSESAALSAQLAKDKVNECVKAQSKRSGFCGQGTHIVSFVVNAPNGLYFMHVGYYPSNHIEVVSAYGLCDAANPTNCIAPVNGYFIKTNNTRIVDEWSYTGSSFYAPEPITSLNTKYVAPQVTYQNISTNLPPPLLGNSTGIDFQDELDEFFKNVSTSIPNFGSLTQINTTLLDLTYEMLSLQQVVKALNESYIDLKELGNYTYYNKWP

“prefusion-stabilized MERS-CoV S ectodomain trimer (MERS-CoV 2P S) (from UniProt K9N5Q8 18-1296) (domain or fragment)” showed a stoichiometry N of 3.
